Data taken from the RNAGym collection of RNA variant scans (doi:10.7554/elife.80360).

B1: Hairpin Ribozyme (parent)
chain: GUCCUCUUUCACGUGCGCGUGAAAGAGAGAAGUGAACCAGAGAAACACACGUUGUGGUAUAUUACCUGGUA

Variants of: B1
Assay: self-cleavage, relative activity (ratio to wild type); higher = more cleavage; co-transcriptional
With U14G A41G the self-cleavage was 0.589.
U14C C50A gave a self-cleavage of 0.0893.
U14G C48A gave a self-cleavage of 0.165.
With U14C A22G the self-cleavage was 0.864.
In the case of G15A C16U, the self-cleavage is reported as 1.01.
In the case of G15C A64G, the self-cleavage is reported as 0.532.
In the case of G15C A64C, the self-cleavage is reported as 0.162.
U14G A59U gave a self-cleavage of 0.183.
For U14G A59C, the self-cleavage was 0.0613.
U14C A30C showed a self-cleavage of 0.263.
In the case of U14C A45U, the self-cleavage is reported as 0.119.
G15A A31G showed a self-cleavage of 0.586.
G15A A31U gave a self-cleavage of 0.133.
U14G G57U gave a self-cleavage of 0.234.
G13U U70A showed a self-cleavage of 0.771.
G15C C48A gave a self-cleavage of 0.121.
U14A U20G gave a self-cleavage of 0.663.
U14A U20C showed a self-cleavage of 1.
For G13U U62A, the self-cleavage was 0.179.
Variant U14C A71C has a self-cleavage of 1.59.
In the case of U14C A71G, the self-cleavage is reported as 1.24.
Variant U14G G42C has a self-cleavage of 0.101.
For U14G U33A, the self-cleavage was 0.116.
With U14G U33C the self-cleavage was 0.0267.
Variant U14G U33G has a self-cleavage of 0.127.
In the case of G15U A28U, the self-cleavage is reported as 0.765.
G15C C18U gave a self-cleavage of 0.922.
Variant G15C C18G has a self-cleavage of 0.863.
Work on G15A U52G yielded a self-cleavage of 0.641.
Variant U14A U62C has a self-cleavage of 0.257.
Variant U14A U62G has a self-cleavage of 0.125.
For U14G U52G, the self-cleavage was 0.507.
Variant U14A A59G has a self-cleavage of 0.0952.
Variant G15C U58G has a self-cleavage of 0.493.
For U14C A31G, the self-cleavage was 0.737.
With G13U G21A the self-cleavage was 0.595.
G13U G21C gave a self-cleavage of 0.431.
Variant G15C U20A has a self-cleavage of 0.963.
G15A G27C gave a self-cleavage of 0.146.
In the case of U14A G42A, the self-cleavage is reported as 0.108.
U14G G27U showed a self-cleavage of 0.144.
Work on U14A A24U yielded a self-cleavage of 0.644.
In the case of U14A A22U, the self-cleavage is reported as 0.715.
With U14A A22G the self-cleavage was 0.762.
With U14C A24C the self-cleavage was 0.943.
With U14C A24U the self-cleavage was 0.545.
Variant U14C A24G has a self-cleavage of 0.81.
With G15A U58A the self-cleavage was 0.533.
In the case of G15A U58G, the self-cleavage is reported as 0.501.
G13U G40A gave a self-cleavage of 0.342.
Variant U14G G51C has a self-cleavage of 0.734.
U14A A26C showed a self-cleavage of 0.817.
In the case of G15A G51U, the self-cleavage is reported as 0.82.
For G15A G51C, the self-cleavage was 0.79.
Variant G15C G34C has a self-cleavage of 0.578.
With G15C G34A the self-cleavage was 1.02.
In the case of U14C A28U, the self-cleavage is reported as 0.668.
Work on G15C C38A yielded a self-cleavage of 0.22.
With G15C C38G the self-cleavage was 0.127.
Variant U14G A24G has a self-cleavage of 0.747.
G13U U33A gave a self-cleavage of 0.105.
U14A A30U showed a self-cleavage of 0.156.
For U14A A30C, the self-cleavage was 0.222.
For U14A A30G, the self-cleavage was 0.165.
U14A U60C showed a self-cleavage of 1.07.
For U14A U60A, the self-cleavage was 0.987.
For G15C A39C, the self-cleavage was 0.463.
G15C A39U showed a self-cleavage of 0.402.
Work on U14C G32C yielded a self-cleavage of 0.244.
U14C G32U showed a self-cleavage of 0.138.
For G15A U55C, the self-cleavage was 0.225.
Work on G13U U53A yielded a self-cleavage of 0.777.
In the case of G15C A36C, the self-cleavage is reported as 0.678.
In the case of G15C A36G, the self-cleavage is reported as 1.06.
With G15C G17U the self-cleavage was 0.959.
U14C U63G gave a self-cleavage of 0.0837.
For U14C G21A, the self-cleavage was 0.865.
G15C A45C gave a self-cleavage of 0.18.
Work on G15A A26C yielded a self-cleavage of 0.93.
U14G G25U showed a self-cleavage of 0.492.
Variant U14G G25C has a self-cleavage of 0.312.
In the case of U14A G21C, the self-cleavage is reported as 0.467.
For G13U G17U, the self-cleavage was 0.712.
